# In PMC4823331:
# Biological target: pneumolysin (Streptococcus pneumoniae) (UniProt P0C2J9)
# Chain of pneumolysin (P0C2J9 whole entry): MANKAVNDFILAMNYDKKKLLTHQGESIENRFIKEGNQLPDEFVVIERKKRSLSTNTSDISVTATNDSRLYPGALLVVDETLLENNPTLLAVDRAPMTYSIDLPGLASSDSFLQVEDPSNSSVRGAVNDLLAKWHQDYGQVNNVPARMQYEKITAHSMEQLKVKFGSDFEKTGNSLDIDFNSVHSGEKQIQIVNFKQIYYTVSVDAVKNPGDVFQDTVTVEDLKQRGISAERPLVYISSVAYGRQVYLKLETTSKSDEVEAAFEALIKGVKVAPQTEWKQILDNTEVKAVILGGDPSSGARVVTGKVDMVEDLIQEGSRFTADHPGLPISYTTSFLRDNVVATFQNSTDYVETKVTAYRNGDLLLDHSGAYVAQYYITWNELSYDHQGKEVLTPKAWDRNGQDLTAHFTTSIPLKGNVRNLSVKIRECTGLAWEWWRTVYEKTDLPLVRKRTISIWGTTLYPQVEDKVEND
substance,measurement,value
pneumolysin (from UniProt P0C2J9 1-471) (natural protein),"k0.5 of the reciprocal lag length before lysis of sheep erythrocytes against pneumolysin concentration (fit with Eq. 3), 30.0 °C",143 nM
same,"k0.5 of the reciprocal lag length before lysis of sheep erythrocytes against pneumolysin concentration (fit with Eq. 3), 33.0 °C",176 nM
same,"k0.5 of the reciprocal lag length before lysis of sheep erythrocytes against pneumolysin concentration (fit with Eq. 3), 35.0 °C",243 nM
same,"k0.5 of the reciprocal lag length before lysis of sheep erythrocytes against pneumolysin concentration (fit with Eq. 3), 37.0 °C",405 nM
same,"k0.5 of the reciprocal lag length before lysis of sheep erythrocytes against pneumolysin concentration (fit with Eq. 3), 38.5 °C",266 nM
